Laboratory results reported in the supplement of paper PMC7877785.
± gives the uncertainty stated by the source.

Test: self-splicing fitness, log relative to wild type (ln ratio); higher = more splicing; Tetrahymena group I intron in knt gene, E. coli kanamycin selection, DiMSum; sequences stand for … in CUCUCU…GGAGGGAAAAGUUAUCAGGCAUGCACCUGGUAGCUAGUCUUUAAACCAAUAGAUUGCAUCGGUUUAAAAGGCAAGACCGUCAAAUUGCGGGAAAGGGGUCAACAGCCGUUCAGUACCAAGUCUCAGGGGAAACUUUGAGAUGGCCUUGCAAAGGGUAUGGUAAUAAGCUGACGGACAUGGUCCUAACCACGCAGCCAAGUCCUAAGUCAACAGAUCUUCUGUUGAUAUGGAUGCAGUUCACAGACUAAAUGUCGGUCGGGGAAGAUGUAUUCUUCUCAUAAGAUAUAGUCGGACCUCUCCUUAAUGGGAGCUAGCGGAUGAAGUGAUGCAACACUGGAGCCGCUGGGAACUAAUUUGUAUGCGAAAGUAUAUUGAUUAGUUUUGGAGUACUCGUGGUCG
Outline: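 The eight P1ex-region nucleotides of an intron in the knt kanamycin-resistance gene on pET-22b(+) were all randomised and the library put into E. coli BL21(DE3). Six replicate transformations were grown overnight at 37°C or 30°C on LB agar with or without 25 μg/mL kanamycin, together with 100 μg/mL carbenicillin, 50 μM IPTG and 0.2% rhamnose. Colonies were pooled and amplicon-sequenced on an Illumina HiSeq 2500. Fitness from DiMSum is the error-weighted combination of wild-type-normalised replicate fold changes, kanamycin over none.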

| Sequence | self-splicing fitness (ln) (30 °C) | self-splicing fitness (ln) (37 °C) |
| --- | --- | --- |
| GAUAAGCAAUAUUACGGCUC | -0.362 ± 0.17 | 0.29 ± 0.2 |
| GAUAAGCAAUAUUACGGGGU | -3.97 ± 0.25 | -1.74 ± 0.16 |
| GAUAAGCAAUAUUACGGUGU | -2.61 ± 0.12 | -1.59 ± 0.11 |
| GAUAAGCAAUAUUACGUACG | -1.67 ± 0.1 | -0.494 ± 0.11 |
| GAUAAGCAAUAUUACGUAGA | -3.26 ± 0.22 | -0.548 ± 0.14 |
| GAUAAGCAAUAUUACGUAGG | -3.01 ± 0.13 | -1.86 ± 0.15 |
| GAUAAGCAAUAUUACGUCAG | -4.56 ± 0.32 | -2.5 ± 0.23 |
| GAUAAGCAAUAUUACGUCGA | -1.54 ± 0.14 | -0.37 ± 0.13 |
| GAUAAGCAAUAUUACGUGUA | -2.1 ± 0.14 | -1.04 ± 0.14 |
| GAUAAGCAAUAUUACGUUAU | -2.81 ± 0.1 | -1.63 ± 0.1 |
| GAUAAGCAAUAUUACGUUCA | -0.732 ± 0.093 | -0.316 ± 0.12 |
| GAUAAGCAAUAUUACGUUCU | -1.8 ± 0.14 | -2.58 ± 0.29 |
| GAUAAGCAAUAUUACGUUUC | -3.88 ± 0.18 | -2.34 ± 0.2 |
| GAUCAGCAAUAUUACGACGC | -0.169 ± 0.077 | 0.198 ± 0.09 |
| GAUCAGCAAUAUUACGAGAG | -1.7 ± 0.082 | -0.506 ± 0.082 |
| GAUCAGCAAUAUUACGCAAC | -1.5 ± 0.13 | -0.455 ± 0.17 |
| GAUCAGCAAUAUUACGCACA | -0.0131 ± 0.12 | 0.404 ± 0.13 |
| GAUCAGCAAUAUUACGCAUC | -4.75 ± 0.31 | -3.11 ± 0.24 |
| GAUCAGCAAUAUUACGCUAC | -3.38 ± 0.48 | -1.62 ± 0.29 |

| Sequence | self-splicing fitness (ln) (30 °C) | self-splicing fitness (ln) (37 °C) |
| --- | --- | --- |
| GAUCAGCAAUAUUACGCUGC | -3.18 ± 0.19 | -2.18 ± 0.23 |
| GAUCAGCAAUAUUACGGCGA | -0.479 ± 0.15 | -0.214 ± 0.15 |
| GAUCAGCAAUAUUACGGGUU | -3.12 ± 0.26 | -2.88 ± 0.38 |
| GAUCAGCAAUAUUACGGUAG | -0.683 ± 0.084 | 0.269 ± 0.1 |
| GAUCAGCAAUAUUACGGUCA | -1.6 ± 0.14 | -0.459 ± 0.1 |
| GAUCAGCAAUAUUACGGUUG | -1.02 ± 0.053 | -0.343 ± 0.073 |
| GAUCAGCAAUAUUACGUAAC | -0.807 ± 0.093 | -0.643 ± 0.13 |
| GAUCAGCAAUAUUACGUACC | -0.223 ± 0.073 | -0.245 ± 0.099 |
| GAUCAGCAAUAUUACGUACU | -0.188 ± 0.067 | -0.441 ± 0.074 |
| GAUCAGCAAUAUUACGUCCU | -0.874 ± 0.1 | -0.0507 ± 0.092 |
| GAUCAGCAAUAUUACGUCGC | -1.11 ± 0.1 | 0.0313 ± 0.11 |
| GAUCAGCAAUAUUACGUGGA | -2.82 ± 0.26 | -1.22 ± 0.13 |
| GAUGAGCAAUAUUACGACAC | -1.25 ± 0.15 | -0.309 ± 0.16 |
| GAUGAGCAAUAUUACGAGAC | -2.67 ± 0.25 | -1.97 ± 0.3 |
| GAUGAGCAAUAUUACGAUAA | -3.49 ± 0.43 | -1.6 ± 0.33 |
| GAUGAGCAAUAUUACGCAGA | -3.98 ± 0.43 | -0.801 ± 0.19 |
| GAUGAGCAAUAUUACGCAUG | -1.61 ± 0.13 | -2.14 ± 0.2 |
| GAUGAGCAAUAUUACGCCAA | -2.45 ± 0.26 | -2.61 ± 0.29 |
